Source: patent US20230406922A1 (SIMCERE ZAIMING PHARMACEUTICAL, published 2023)
Residue numbers refer to the chain shown, from its start. Blank lines part the entries; values can stand above or below the binder they belong to.

Columns and labels:
monkey CD19-his protein = monkey CD19-his protein (monkey); experiment: ELISA, monkey CD19 coated
Method: After incubation for 2 h at 37° C., the plate was washed 3 times with PBS. […] After incubation for 1 h at 37° C., the plate was washed 5 times with PBS. A TMB substrate was added at 50 μL/well. After incubation at room temperature for 10 min, a stop solution (1.0 N HCl) was added at 50 μL/well. The OD450 nm values were read on an ELISA microplate reader (Multimode Plate Reader, EnSight, purchased from Perkin Elmer). […] The negative control antibody mIgG1 was an antibody against hen egg lysozyme, anti-hel-mIgG1 (purchased from Biointron, Cat. No. B118301), and the data in the table were OD450 nm values.
IgG control was mIgG1, S003-NB151-89 was a clone that is selected from a library constructed by peripheral blood collected from Alpaca immunized by human CD19-His and can bind to a monkey CD19-His protein, and was used as a positive control, and the data in the table were OD450 nm values.

[1] = biological target: T1, human CD19, full length, on cells (human, UniProt P15391 20-556); experiment: FACS on CHO-K1-human CD19 cells
T1 construct: the endogenous CD19 of Raji cells is put under the same molecule (the cell type stands under assay); The entry holds the signal peptide; also called CHO-K1-human CD19; CHO-K1-human CD19-2C8
T1 sequence: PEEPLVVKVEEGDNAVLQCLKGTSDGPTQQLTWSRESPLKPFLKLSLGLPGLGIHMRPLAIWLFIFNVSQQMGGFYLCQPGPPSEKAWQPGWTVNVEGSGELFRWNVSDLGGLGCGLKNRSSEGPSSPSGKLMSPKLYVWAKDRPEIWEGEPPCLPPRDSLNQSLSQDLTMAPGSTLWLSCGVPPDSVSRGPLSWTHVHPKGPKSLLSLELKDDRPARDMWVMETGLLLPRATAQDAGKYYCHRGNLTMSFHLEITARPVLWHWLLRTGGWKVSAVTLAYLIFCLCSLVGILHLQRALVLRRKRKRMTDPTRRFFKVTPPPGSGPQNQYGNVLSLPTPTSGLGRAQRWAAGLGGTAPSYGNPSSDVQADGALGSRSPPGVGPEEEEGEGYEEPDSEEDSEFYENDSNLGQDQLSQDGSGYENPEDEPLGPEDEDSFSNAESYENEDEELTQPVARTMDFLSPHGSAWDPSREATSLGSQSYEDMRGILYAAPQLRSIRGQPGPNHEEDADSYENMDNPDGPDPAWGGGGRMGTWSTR
Excerpt: (§1) The desired cells were expanded to a logarithmic growth phase in a T-75 cell culture flask. For adherent cells CHO-K1, the culture medium was removed by pipetting, and the cells were washed twice with a PBS buffer, digested with trypsin, and washed twice with a PBS buffer again after the digestion was stopped. For suspension cells Raji, the medium supernatant was discarded by direct centrifugation, and the cell pellet was washed twice with PBS. After cell counting of the cells obtained in the last step, the cell pellet was resuspended to 2×10⁶ cells/mL with a blocking solution [PBS+2% (w/w) BSA] and added into a 96-well FACS reaction plate at 50 μL/well. […] After the plate was centrifuged and washed 5 times with a PBS buffer, the results were assayed and analyzed by FACS (FACS Canto™, purchased from BD Biosciences). Data analysis was performed by software (CellQuest) to obtain the mean fluorescence intensity (MFI) of the cells. Then, analysis was performed by software (GraphPad Prism8), data were fitted, and EC₅₀ values were calculated.

[2] = biological target: T1, human CD19, full length, on cells; experiment: FACS on Raji cells
Excerpt: as §1

murine CD19 protein = biological target: T2, murine CD19 protein (murine, UniProt P25918 19-287, limits assumed); experiment: ELISA, murine CD19 coated
T2 construct: also called mouse CD19-his protein
T2 sequence (looked up): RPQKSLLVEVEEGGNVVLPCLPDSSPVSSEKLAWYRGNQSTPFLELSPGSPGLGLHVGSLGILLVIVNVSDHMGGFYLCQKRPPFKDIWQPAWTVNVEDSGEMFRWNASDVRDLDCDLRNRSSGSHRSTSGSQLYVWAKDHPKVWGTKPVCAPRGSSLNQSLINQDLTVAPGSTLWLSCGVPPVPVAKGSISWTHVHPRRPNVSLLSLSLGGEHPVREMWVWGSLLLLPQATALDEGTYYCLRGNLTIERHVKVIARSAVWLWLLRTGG

- OD450 at 0.0001 nM (monkey CD19-his protein): 0.05 OD450
- OD450 at 0.001 nM (monkey CD19-his protein): 0.05 OD450
- OD450 at 0.01 nM (monkey CD19-his protein): 0.05 OD450
- OD450 at 0.10 nM (monkey CD19-his protein): 0.05 OD450
- OD450 at 1.00 nM (monkey CD19-his protein): 0.05 OD450
- OD450 at 10.00 nM (monkey CD19-his protein): 0.06 OD450
- OD450 at 100.00 nM (monkey CD19-his protein): 0.1 OD450
- EC50 [1]: 1.12 nM
- maximum mean fluorescence intensity [1]: 31500 MFI
- EC50 [2]: 0.32 nM
- maximum mean fluorescence intensity [2]: 8500 MFI
- OD450 at 0.0001 nM (murine CD19 protein): 0.08 OD450
- OD450 at 0.001 nM (murine CD19 protein): 0.07 OD450
- OD450 at 0.01 nM (murine CD19 protein): 0.06 OD450
- OD450 at 0.10 nM (murine CD19 protein): 0.07 OD450
- OD450 at 1.00 nM (murine CD19 protein): 0.08 OD450
- OD450 at 10.00 nM (murine CD19 protein): 0.09 OD450
- OD450 at 100.00 nM (murine CD19 protein): 0.13 OD450
B1: FMC63.26-mIgG1 (antibody, V domains shown)
VH: EVTLKESGPVLVKPTETLTLTCTVSGFSLPDYGVSWIRQPPGKALEWLAVIWGSETTYYNSALKSRLTISKDTSKSQVVLTMTNMDPVDTATYYCAKHYYYGGSYAMDYWGQGTTVTVSS
VL: DIQMTQSPSSLSASVGDRVTITCRASQDISKYLNWYQQKPGGAVKLLIYHTSRLHSGVPSRFSGSGSGTDYTLTISSLQPEDFATYYCQQGNTLPYTFGGGTKVEIKR
notes: Humanized FMC63; also called FMC63-L2H6

- OD450 at 0.0001 nM (monkey CD19-his protein): 0.05 OD450
- OD450 at 0.001 nM (monkey CD19-his protein): 0.05 OD450
- OD450 at 0.01 nM (monkey CD19-his protein): 0.05 OD450
- OD450 at 0.10 nM (monkey CD19-his protein): 0.05 OD450
- OD450 at 1.00 nM (monkey CD19-his protein): 0.05 OD450
- OD450 at 10.00 nM (monkey CD19-his protein): 0.05 OD450
- OD450 at 100.00 nM (monkey CD19-his protein): 0.1 OD450
- EC50 [1]: 1.33 nM
- maximum mean fluorescence intensity [1]: 29400 MFI
- EC50 [2]: 0.3 nM
- maximum mean fluorescence intensity [2]: 7840 MFI
- OD450 at 0.0001 nM (murine CD19 protein): 0.06 OD450
- OD450 at 0.001 nM (murine CD19 protein): 0.06 OD450
- OD450 at 0.01 nM (murine CD19 protein): 0.06 OD450
- OD450 at 0.10 nM (murine CD19 protein): 0.05 OD450
- OD450 at 1.00 nM (murine CD19 protein): 0.06 OD450
- OD450 at 10.00 nM (murine CD19 protein): 0.08 OD450
- OD450 at 100.00 nM (murine CD19 protein): 0.11 OD450
B2: FMC63.27-mIgG1 (antibody, V domains shown)
VH: B1 VH with F27V, T73N
VL: B1 VL
notes: Humanized FMC63; also called FMC63-L2H7

- OD450 at 0.0001 nM (monkey CD19-his protein): 0.1 OD450
- OD450 at 0.001 nM (monkey CD19-his protein): 0.1 OD450
- OD450 at 0.01 nM (monkey CD19-his protein): 0.09 OD450
- OD450 at 0.10 nM (monkey CD19-his protein): 0.08 OD450
- OD450 at 1.00 nM (monkey CD19-his protein): 0.08 OD450
- OD450 at 10.00 nM (monkey CD19-his protein): 0.1 OD450
- OD450 at 100.00 nM (monkey CD19-his protein): 0.12 OD450
- EC50 [1]: 0.79 nM
- maximum mean fluorescence intensity [1]: 33100 MFI
- EC50 [2]: 0.33 nM
- maximum mean fluorescence intensity [2]: 9170 MFI
- OD450 at 0.0001 nM (murine CD19 protein): 0.08 OD450
- OD450 at 0.001 nM (murine CD19 protein): 0.08 OD450
- OD450 at 0.01 nM (murine CD19 protein): 0.08 OD450
- OD450 at 0.10 nM (murine CD19 protein): 0.08 OD450
- OD450 at 1.00 nM (murine CD19 protein): 0.08 OD450
- OD450 at 10.00 nM (murine CD19 protein): 0.08 OD450
- OD450 at 100.00 nM (murine CD19 protein): 0.09 OD450
B3: FMC63.25-mIgG1 (antibody, V domains shown)
VH: B1 VH with P30S
VL: B1 VL
notes: Humanized FMC63; also called FMC63-L2H5
